From US11643691B2, “Predictive biomarkers for cancer immunotherapy and methods of using same” (Duke University, priority 2018, dated 2023)

Tests used:
DCs [1] = test: Extracellular acidification rate (ECAR), Seahorse XFe24 flux analysis of DCs; assay type: cell-based, Murine
Protocol: (§1) Dendritic Cell Conditioning: DCs were treated with Wnt3a (100 ng/mL), Wnt5a (200 ng/mL), LPS (1 μg/mL), 1-MT (1 mM), 2DG (1 mM), or ETO (100 μM), 2-DG(2-deoxy-d-glucose, 1 mM), Oligomycin (1 μM), succinylacetone (250 μM), or vehicle control either for 24 or 48 hrs prior to their use in both in vitro and in vivo experiments.
(§2) Cellular Energy Metabolism Analysis: DC energy metabolism was measured using the XFe24 extracellular flux analyzer (Seahorse Bioscience), with the glycolysis stress test kit and the mitochondrial stress test kit as previously described (Everts et al., 2014, Zhao and Klimecki, 2015). For experiments involving LPS injection, DCs were plated in XFe24 plates (200,000/well in 500p1) and treated with LPS for 48 hours prior to XF analysis. DCs were washed and analyzed in XF media (RPMI without sodium bicarbonate, 10 mM glucose, 1% FBS, 2 mM L-glutamine). ECAR was analyzed in real-time with or without LPS stimulation. For experiments involving BrafV600EPten−/− cell line-derived conditioned media (CM), collected CM was concentrated and desalted with an Amicon Ultra 30K filter according to manufacturer's recommendations (Milipore). Final concentrate was further washed with XF media 3 times, added to DCs immediately prior to OCR analysis. For standard ECAR analysis, XF media (without glucose) was used to wash cells prior to the assay. A final concentration of 10 mM glucose, 1 μM oligomycin, 50 mM 2-DG(sigma) were injected through XFe24 port A-C. For standard OCR analysis, XF media (with 10 mM glucose) was used to wash cells, a final concentration of 1 μM oligomycin, 1.5 μM FCCP (fluoro-carbonyl cyanide phenylhydrazone), 100 nM rotenone, and 1 μM of antimycin-A (Sigma) were injected through XFe24 port A-C.

DCs [2] = test: Oxygen consumption rate (OCR) / OXPHOS, Seahorse XFe24 flux analysis of murine DCs; assay type: cell-based; settings: DCs pre-treated
Protocol: as §1
as §2, with “A final concentration of 10 mM glucose, 1 μM oligomycin, 50 mM 2-DG(sigma) were injected through XFe24 port A-C. For standard OCR analysis, XF media (with 10 mM glucose) was used to wash cells, a final concentration of 1 μM oligomycin, 1.5 μM FCCP (fluoro-carbonyl cyanide phenylhydrazone), 100 nM rotenone, and 1 μM of antimycin-A (Sigma) were injected through XFe24 port A-C.” left out

DCs [3] = test: qRT-PCR / qPCR array / immunoblot gene expression in DCs; assay type: cell-based, Murine
Protocol: Dendritic Cell Conditioning: DCs were treated with Wnt3a (100 ng/mL), Wnt5a (200 ng/mL), LPS (1 μg/mL), 1-MT (1 mM), 2DG (1 mM), or ETO (100 μM), 2-DG(2-deoxy-d-glucose, 1 mM), Oligomycin (1 μM), succinylacetone (250 μM), […]
(§3) Antibodies, Immunoprecipitation, and Immunoblot Analysis: Primary antibodies including CPT1A (Cell signaling), PPAR-γ (Santa Cruz Biotechnology), β-catenin, β-actin (Millipore), p-AMPK(T172)/AMPK (Cell signaling), p-AKT(T308)/Akt (Cell Signaling) were used at 1:1000. Secondary antibodies including goat anti-rabbit IgG-HRP (Millipore) and goat anti-mouse IgG-HRP (Millipore) were used at 1:5000. Cells were lysed in Laemmli sample buffer after treatment and subjected to SDS-polyacrylamide gel electrophoresis and immunoblot analysis. For immunoprecipitation, cells were lysed in radio immunoprecipitation assay (RIPA) buffer [10 mM sodium phosphate (pH 8.0), 150 mM NaCl, 1% Triton X-100, 1% sodium deoxycholate, and 0.1% SDS in the presence of 1 mM DTT, 1 mM phenylmethylsulfonylfluoride, and a protease inhibitor cocktail (Sigma)], precleared with protein A beads, and then incubated with 1 μg of antibody against β-catenin or isotype control IgG with protein A-agarose beads on a rotator overnight at 4° C. After 3 washes with RIPA buffer, immunoprecipitated complexes were eluted in sample buffer by boiling and subjected to immunoblot analysis. Immunoblots were visualized by chemiluminescence substrate (ThermoFisher) and imaged by a ChemiDoc XRSplus system (BioRad).
RNA Isolation, RT-qPCR, qPCR Array: Total RNA was isolated by RNeasy Plus Mini Kit(Qiagen). RNA(500 ng) were used in cDNA Synthesis (iScript, BioRad). Quantification of mRNA for genes involved in PPARγ signaling was performed using Mouse PrimePCR PPAR Array according to the manufacturer's protocol (BioRad). Real-time PCR was performed using an ABI7500 Real-Time PCR system (Life Technologies). Data analysis utilized the PrimePCR Analysis Software (BioRad). Conventional qPCR was performed using validated primers, and SsoAdvanced Universal SYBR Green Super mix (BioRad) or Taqman probes (Applied Biosystems) for heme synthesis enzymes.

[4] = tested on: CD8+ T cell proliferation; test: T cell proliferation assay (CellTrace Violet dilution, OT-1 splenocytes with conditioned DCs); assay type: cell-based, mice; settings: DCs pre-treated, LPS stimulated
Protocol: T Cell Proliferation Assay: Splenocytes of OT-1 mice (H-2b) were isolated and stained with CellTrace Violet (ThermoFisher). Preconditioned DCs were loaded with ovalbumin peptide SIINFEKL, and co-cultured at a DC:splenocyte ratio of 40,000:120,000 cells for 72 hrs. CD8+ T cell proliferation was measured by the dilution of Cell Trace Violet dye by flow cytometry.

DCs [5] = test: BODIPY and fatty acid uptake assay; assay type: cell-based, Murine; settings: TF2-C12 uptake, BODIPY
Protocol: BODIPY and Fatty Acid Uptake Assay: DCs were stained in 0.5 μg/ml BODIPY 493/503 in PBS for 15 min to determine neutral lipid content (Herber et al., 2010). Fatty acid uptake measurement in DCs were performed using a dodecanoic acid fluorescent TF2-C12 fatty acid (Sigma) according to the manufacturer's protocol.

AMPK = test: Thr-172 phospho-AMPK immunoblot analysis of DCs; assay type: cell-based, Murine; settings: Wnt5a 200 ng/mL, 24 and 48 hrs
Text: as §3, with “Data is representative of 3 independent experiments. […] Data is representative of 3 independent experiments. […] Antibodies,” for “Antibodies,”

B1: Wnt5a: Recombinant Human/Mouse Wnt5a Protein (R&D Systems) (protein, UniProt P41221 62-380, looked up)
Protein Wnt-5a: IIGAQPLCSQLAGLSQGQKKLCHLYQDHMQYIGEGAKTGIKECQYQFRHRRWNCSTVDNTSVFGRVMQIGSRETAFTYAVSAAGVVNAMSRACREGELSTCGCSRAARPKDLPRDWLWGGCGDNIDYGYRFAKEFVDARERERIHAKGSYESARILMNLHNNEAGRRTVYNLADVACKCHGVSGSCSLKTCWLQLADFRKVGDALKEKYDSAAAMRLNSRGKLVQVNSRFNSPTTQDLVYIDPSPDYCVRNESTGSLGTQGRLCNKTSEGMDGCELMCCGRGYDQFKTVQTERCHCKFHWCCYVKCKKCTEIVDQFVCK
- LPS-induced glycolytic surge (ECAR) (DCs [1]; DCs pre-treated): suppressed the lipopolysaccharide (LPS)-induced glycolytic surge
- glycolysis (ECAR) acutely after stimulation (DCs [1]; within 90 min of stimulation): failed to impact glycolysis
- OXPHOS in DCs (OCR) (DCs [2]): effectively promoted OXPHOS in DCs
- IL-6 and IL-12 expression in primary DCs (DCs [3]; qRT-PCR): suppresses IL-6 and IL-12 expression in primary DCs
- expression of Alas1 and further enzymes of PpIX synthesis (DCs [3]; qRT-PCR): upregulated expression of Alas1 and several additional enzymes involved in PpIX synthesis
- expression of TCA cycle enzymes (Idh1, Idh2, Oghd, Dld, Dlst) (DCs [3]; qRT-PCR): stimulated the expression of isocitrate dehydrogenase
- expression of hexokinase (Hk) and phosphofructokinase-1 (Pfk1) (DCs [3]; qRT-PCR, after 4-8 hr of stimulation): downregulated the expression of the rate-limiting glycolytic enzymes
- PPAR-γ (Pparg) and CPT1A (Cpt1a) expression (DCs [3]; real-time qPCR and immunoblot, murine and human DCs for rWnt5a): induces upregulation of Pparg and Cpt1a
- LPS-induced DC-mediated antigen-specific T cell proliferation [4]: suppresses LPS-induced DC-mediated antigen-specific T cell proliferation
- DC fatty acid uptake and lipid stores (DCs [5]): enhance DC fatty acid uptake and lipid stores
- AMPK activation (Thr-172 phospho-AMPK) (AMPK): suppressed AMPK activation
